Data on five substances can be found in article PMC3961690.

Data set [1] concerns the target Cys69 (UniProt position 69, FGDYKCPSCKV). The conditions noted are these: cited from earlier work.
In data set [2] the target is Cys461 (UniProt position 480, LYADWCVACKE). The data set can be described thus: NMR. As to conditions: 298 K, isolated domain, folded.
For data set [3], the target named is Asp455 (UniProt position 474, KPVMLDLYADW). The data set can be described thus: NMR. The conditions noted are these: 298 K, isolated domain, folded.
The target in data set [4] is Cys30 (UniProt position 49, FFSFFCPHCYQ). As to conditions: cited from earlier work.
The target of data set [5] is Cys32 (UniProt position 32, FSATWCGPCKM). As to conditions: reduced human thioredoxin; cited from earlier work.
Data set [6] concerns the target Asp26 (UniProt position 26, KLVVVDFSATW). As to conditions: cited from earlier work.
Where [7] appears, read: not stated, 1 mM protein, reduced (dithiol).
Setting [8] is: not stated, 1 mM protein, oxidised (Cys-461-Cys-464 disulfide).
Setting [9] is: oxidised (Cys-461-Cys-464 disulfide).

“And” between values parts separate entries of the source, which are not always exact repeats. Equal entries are not always repeated. Where two headings read alike, the source gives them in different places.

Turning to “Disulfide bond formation protein D (BdbD) (Bacillus subtilis)”, in data set [1], the pKa entry is “less than 4.5”.
For the substance “DsbD C-terminal domain, Q488K variant (Q488K-cDsbD) (Escherichia coli; Q488K)”, the pKa in data set [2] (not stated (pH adjusted with 0.1 M DCl or NaOD), 1 mM protein, reduced (Cys-461/Cys-464 dithiol)) was 10.3 and 10.5 and 10.4; in data set [2] (setting [7]) it was 10.9; in data set [2] (reduced (dithiol)), 10.5 ± 0.2; in data set [3] (setting [8]), 8.0; in data set [3] (setting [7]), 7.2 and 7.1; in data set [3] (setting [9]) it was 8.1 ± 0.2. The substance also displayed a pKa in data set [3] (reduced (dithiol)) of 7.5 ± 0.4.
For “DsbD C-terminal domain, Q488A variant (Q488A-cDsbD) (Escherichia coli; Q488A)”, the pKa was 7.7 and 7.5 in data set [3] (setting [8]); 8.0 ± 0.3 in data set [3] (setting [9]).
With “Thiol:disulfide interchange protein DsbA (Escherichia coli)”, in data set [4], the pKa was 3.5.
In the case of “Thioredoxin (Trx1), human (Homo sapiens)”, the pKa in data set [5] is on record as 6.3; in data set [6] (oxidised human thioredoxin), 8.1; in data set [6] (reduced human thioredoxin) it was 9.9.

In general, pKa refers to the pH at which an ionisable group is half protonated.
